Experimental data taken from the Human Domainome abundance scans (Beltran et al. 2025).
± gives the uncertainty stated by the source.

B1: Connector enhancer of kinase suppressor of ras 2, residues 9 to 71; numbered along this chain, Q8WXI2 (parent)
chain: SKWSPSQVVDWMKGLDDCLQQYIKNFEREKISGDQLLRITHQELEDLGVSRIGHQELILEAVD

Variants of: B1
Test: abundance fitness (aPCA) (normalised: wild type 0, dead -1); higher = more abundant; growth selection in yeast, the domain comes from the species named
Settings: Homo sapiens

Variant | abundance fitness
I39E | -0.607 ± 0.048
I39F | -0.254 ± 0.045
I39G | -0.699 ± 0.034
I39H | -0.65 ± 0.071
I39K | -0.576 ± 0.047
I39L | 0.01 ± 0.026
I39M | 0.009 ± 0.034
I39N | -0.67 ± 0.053
I39Q | -0.653 ± 0.032
I39R | -0.717 ± 0.03
I39S | -0.537 ± 0.037
I39T | -0.455 ± 0.042
I39V | -0.22 ± 0.03
I39W | -0.737 ± 0.04
I39Y | -0.632 ± 0.064
T40A | -0.499 ± 0.034
T40C | -0.426 ± 0.04
T40D | -0.327 ± 0.091
T40E | -0.548 ± 0.038
T40F | -1.21 ± 0.37
T40G | -0.12 ± 0.027
T40H | -0.6 ± 0.076
T40I | -0.893 ± 0.093
T40K | -0.186 ± 0.042

Variant | abundance fitness
T40L | -1.07 ± 0.076
T40M | -0.907 ± 0.082
T40N | -0.201 ± 0.052
T40P | -0.784 ± 0.05
T40Q | -0.437 ± 0.038
T40V | -0.877 ± 0.04
T40W | -0.957 ± 0.07
H41C | -0.157 ± 0.054
H41D | -0.229 ± 0.052
H41E | -0.076 ± 0.035
H41G | -0.077 ± 0.025
H41I | -0.184 ± 0.051
H41K | 0.029 ± 0.034
H41L | -0.234 ± 0.027
H41M | -0.125 ± 0.047
H41N | -0.097 ± 0.04
H41P | -0.002 ± 0.033
H41Q | -0.037 ± 0.033
H41S | -0.007 ± 0.027
H41T | -0.031 ± 0.033
H41V | -0.06 ± 0.03
H41Y | -0.075 ± 0.049
Q42A | -0.083 ± 0.017
Q42C | -0.395 ± 0.042

Variant | abundance fitness
Q42D | -0.348 ± 0.046
Q42E | -0.119 ± 0.034
Q42F | -0.618 ± 0.077
Q42G | -0.193 ± 0.028
Q42I | -0.558 ± 0.086
Q42K | 0.002 ± 0.051
Q42L | -0.378 ± 0.025
Q42M | -0.319 ± 0.05
Q42N | -0.228 ± 0.044
Q42P | -0.254 ± 0.035
Q42R | -0.03 ± 0.024
Q42S | -0.128 ± 0.021
Q42T | -0.118 ± 0.028
Q42V | -0.258 ± 0.024
Q42W | -0.767 ± 0.047
Q42Y | -0.848 ± 0.1
E43A | -0.143 ± 0.03
E43C | -0.332 ± 0.036
E43D | 0.011 ± 0.034
E43F | -0.455 ± 0.042
E43G | -0.131 ± 0.034
E43H | -0.179 ± 0.049
E43I | -0.46 ± 0.045
E43K | -0.003 ± 0.055

Variant | abundance fitness
E43L | -0.41 ± 0.03
E43M | -0.165 ± 0.042
E43N | -0.121 ± 0.035
E43P | -0.987 ± 0.077
E43Q | 0.03 ± 0.037
E43R | 0.006 ± 0.023
E43S | -0.137 ± 0.026
E43T | -0.151 ± 0.026
E43V | -0.257 ± 0.036
E43W | -0.498 ± 0.04
E43Y | -0.472 ± 0.044
L44A | -0.814 ± 0.046
L44D | -0.657 ± 0.065
L44E | -0.82 ± 0.067
L44F | -0.722 ± 0.07
L44G | -0.804 ± 0.047
L44H | -0.914 ± 0.089
L44I | -0.982 ± 0.23
L44K | -0.791 ± 0.068
L44M | -0.399 ± 0.05
L44N | -0.87 ± 0.091
L44P | -0.821 ± 0.073
L44Q | -0.932 ± 0.12
L44R | -0.753 ± 0.036

Variant | abundance fitness
L44S | -0.784 ± 0.039
L44T | -0.781 ± 0.05
L44V | -0.79 ± 0.045
L44W | -0.964 ± 0.06
L44Y | -0.9 ± 0.086
E45C | -0.018 ± 0.031
E45D | -0.167 ± 0.056
E45F | -0.033 ± 0.043
E45G | -0.12 ± 0.029
E45H | -0.04 ± 0.022
E45I | -0.076 ± 0.035
E45K | 0.021 ± 0.042
E45L | -0.045 ± 0.026
E45M | -0.066 ± 0.033
E45N | -0.015 ± 0.039
E45P | -0.784 ± 0.052
E45Q | -0.007 ± 0.047
E45R | -0.017 ± 0.021
E45S | -0.017 ± 0.02
E45T | -0.034 ± 0.03
E45V | -0.118 ± 0.028
E45W | -0.193 ± 0.027
D46A | -0.054 ± 0.031
D46C | -0.188 ± 0.044

Variant | abundance fitness
D46E | -0.013 ± 0.032
D46F | -0.097 ± 0.035
D46G | -0.075 ± 0.026
D46H | 0.008 ± 0.039
D46I | -0.178 ± 0.044
D46K | 0.072 ± 0.035
D46M | -0.042 ± 0.04
D46N | -0.006 ± 0.036
D46P | -0.813 ± 0.076
D46Q | -0.032 ± 0.048
D46R | 0.027 ± 0.023
D46S | -0.037 ± 0.024
D46T | -0.041 ± 0.031
D46V | -0.11 ± 0.032
D46W | -0.192 ± 0.034
D46Y | -0.194 ± 0.04
L47A | -0.681 ± 0.032
L47C | -0.592 ± 0.083
L47D | -0.857 ± 0.061
L47E | -0.795 ± 0.038
L47F | -0.612 ± 0.072
L47G | -0.857 ± 0.038
L47H | -0.785 ± 0.08
L47I | 0.003 ± 0.064

Variant | abundance fitness
L47M | -0.083 ± 0.039
L47N | -0.783 ± 0.059
L47P | -0.762 ± 0.048
L47Q | -0.838 ± 0.073
L47R | -0.688 ± 0.038
L47S | -0.813 ± 0.041
L47T | -0.805 ± 0.049
L47V | -0.423 ± 0.025
L47W | -0.622 ± 0.047
L47Y | -0.72 ± 0.067
G48A | -0.844 ± 0.053
G48C | -0.698 ± 0.055
G48D | -0.64 ± 0.075
G48E | -0.692 ± 0.055
G48H | -0.813 ± 0.1
G48I | -1.29 ± 0.33
G48K | -0.552 ± 0.058
G48L | -0.991 ± 0.055
G48M | -0.871 ± 0.091
G48N | -0.66 ± 0.078
G48P | -0.704 ± 0.11
G48S | -0.66 ± 0.036
G48T | -0.865 ± 0.08
